34 molecules from paper PMC12416549 (2024) can be followed below.

For this assay, the target named is T1, TNFR1 (Homo sapiens, UniProt P19438).
T1 chain: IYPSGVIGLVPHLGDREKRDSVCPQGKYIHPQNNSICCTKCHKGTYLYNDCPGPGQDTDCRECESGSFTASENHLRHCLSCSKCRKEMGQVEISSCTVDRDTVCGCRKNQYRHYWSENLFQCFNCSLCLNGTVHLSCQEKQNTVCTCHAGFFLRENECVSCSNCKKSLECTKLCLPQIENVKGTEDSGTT
The assay is described as follows: yeast display SC50.

B1: I45N (designed binder)
chain: MTLQELLREEALRRAEAEAFRYALELLAEKFPEQKEYLLDLAEENESQIRSLSGVDVEDVRKFLDKEWAWVKELLAEHPAELAEVEAARAARLAELRAEVEAKVAA
Consider B1, for which the “apparent Kd (screen)” value turned out to be 4.83 nM.

B2: E33G (designed binder)
chain: MTLQELLREEALRRAEAEAFRYALELLAEKFPGQKEYLLDLAEEIESQIRSLSGVDVEDVRKFLDKEWAWVKELLAEHPAELAEVEAARAARLAELRAEVEAKVAA
On to B2, for which the “apparent Kd (screen)” value stood at 0.79 nM.

B3: E77A (designed binder)
chain: MTLQELLREEALRRAEAEAFRYALELLAEKFPEQKEYLLDLAEEIESQIRSLSGVDVEDVRKFLDKEWAWVKELLAAHPAELAEVEAARAARLAELRAEVEAKVAA
Regarding B3, the “apparent Kd (screen)” value worked out at 0.539 nM.

B4: V55K (designed binder)
chain: MTLQELLREEALRRAEAEAFRYALELLAEKFPEQKEYLLDLAEEIESQIRSLSGKDVEDVRKFLDKEWAWVKELLAEHPAELAEVEAARAARLAELRAEVEAKVAA
Consider B4, for which the “apparent Kd (screen)” value amounted to 16.7 nM.

B5: D40W (designed binder)
chain: MTLQELLREEALRRAEAEAFRYALELLAEKFPEQKEYLLWLAEEIESQIRSLSGVDVEDVRKFLDKEWAWVKELLAEHPAELAEVEAARAARLAELRAEVEAKVAA
Consider B5, for which the “apparent Kd (screen)” value is 0.49 nM.

B6: R8A (designed binder)
chain: MTLQELLAEEALRRAEAEAFRYALELLAEKFPEQKEYLLDLAEEIESQIRSLSGVDVEDVRKFLDKEWAWVKELLAEHPAELAEVEAARAARLAELRAEVEAKVAA
Consider B6, for which the “apparent Kd (screen)” value worked out at 0.869 nM.

B7: V85L (designed binder)
chain: MTLQELLREEALRRAEAEAFRYALELLAEKFPEQKEYLLDLAEEIESQIRSLSGVDVEDVRKFLDKEWAWVKELLAEHPAELAELEAARAARLAELRAEVEAKVAA
Take B7: the “apparent Kd (screen)” value came out at 2.73 nM.

B8: P32T (designed binder)
chain: MTLQELLREEALRRAEAEAFRYALELLAEKFTEQKEYLLDLAEEIESQIRSLSGVDVEDVRKFLDKEWAWVKELLAEHPAELAEVEAARAARLAELRAEVEAKVAA
As for B8, the “apparent Kd (screen)” value is 0.539 nM.

B9: A69S (designed binder)
chain: MTLQELLREEALRRAEAEAFRYALELLAEKFPEQKEYLLDLAEEIESQIRSLSGVDVEDVRKFLDKEWSWVKELLAEHPAELAEVEAARAARLAELRAEVEAKVAA
As for B9, the “apparent Kd (screen)” value amounted to 0.718 nM.

B10: R8V (designed binder)
chain: MTLQELLVEEALRRAEAEAFRYALELLAEKFPEQKEYLLDLAEEIESQIRSLSGVDVEDVRKFLDKEWAWVKELLAEHPAELAEVEAARAARLAELRAEVEAKVAA
Take B10: the “apparent Kd (screen)” value was found to be 0.539 nM.

B11: E36I (designed binder)
chain: MTLQELLREEALRRAEAEAFRYALELLAEKFPEQKIYLLDLAEEIESQIRSLSGVDVEDVRKFLDKEWAWVKELLAEHPAELAEVEAARAARLAELRAEVEAKVAA
As to B11, the “apparent Kd (screen)” value amounted to 2.48 nM.

B12: F31I (designed binder)
chain: MTLQELLREEALRRAEAEAFRYALELLAEKIPEQKEYLLDLAEEIESQIRSLSGVDVEDVRKFLDKEWAWVKELLAEHPAELAEVEAARAARLAELRAEVEAKVAA
Consider B12, for which the “apparent Kd (screen)” value was found to be 0.956 nM.

B13: S53M (designed binder)
chain: MTLQELLREEALRRAEAEAFRYALELLAEKFPEQKEYLLDLAEEIESQIRSLMGVDVEDVRKFLDKEWAWVKELLAEHPAELAEVEAARAARLAELRAEVEAKVAA
Consider B13, for which the “apparent Kd (screen)” value was 1.27 nM.

B14: A105P (designed binder)
chain: MTLQELLREEALRRAEAEAFRYALELLAEKFPEQKEYLLDLAEEIESQIRSLSGVDVEDVRKFLDKEWAWVKELLAEHPAELAEVEAARAARLAELRAEVEAKVPA
B14: the “apparent Kd (screen)” value turned out to be 0.79 nM.

B15: W68E (designed binder)
chain: MTLQELLREEALRRAEAEAFRYALELLAEKFPEQKEYLLDLAEEIESQIRSLSGVDVEDVRKFLDKEEAWVKELLAEHPAELAEVEAARAARLAELRAEVEAKVAA
For B15, the “apparent Kd (screen)” value was found to be 2.73 nM.

B16: L96C (designed binder)
chain: MTLQELLREEALRRAEAEAFRYALELLAEKFPEQKEYLLDLAEEIESQIRSLSGVDVEDVRKFLDKEWAWVKELLAEHPAELAEVEAARAARLAECRAEVEAKVAA
On to B16, for which the “apparent Kd (screen)” value was 0.49 nM.

B17: E84W (designed binder)
chain: MTLQELLREEALRRAEAEAFRYALELLAEKFPEQKEYLLDLAEEIESQIRSLSGVDVEDVRKFLDKEWAWVKELLAEHPAELAWVEAARAARLAELRAEVEAKVAA
For the molecule B17, the “apparent Kd (screen)” value amounted to 0.593 nM.

B18: D59Y (designed binder)
chain: MTLQELLREEALRRAEAEAFRYALELLAEKFPEQKEYLLDLAEEIESQIRSLSGVDVEYVRKFLDKEWAWVKELLAEHPAELAEVEAARAARLAELRAEVEAKVAA
As for B18, the “apparent Kd (screen)” value amounted to 3 nM.

B19: L96F (designed binder)
chain: MTLQELLREEALRRAEAEAFRYALELLAEKFPEQKEYLLDLAEEIESQIRSLSGVDVEDVRKFLDKEWAWVKELLAEHPAELAEVEAARAARLAEFRAEVEAKVAA
On to B19, for which the “apparent Kd (screen)” value was 0.539 nM.

B20: K103T (designed binder)
chain: MTLQELLREEALRRAEAEAFRYALELLAEKFPEQKEYLLDLAEEIESQIRSLSGVDVEDVRKFLDKEWAWVKELLAEHPAELAEVEAARAARLAELRAEVEATVAA
In the case of B20, the “apparent Kd (screen)” value is 0.956 nM.

B21: A19D (designed binder)
chain: MTLQELLREEALRRAEAEDFRYALELLAEKFPEQKEYLLDLAEEIESQIRSLSGVDVEDVRKFLDKEWAWVKELLAEHPAELAEVEAARAARLAELRAEVEAKVAA
With B21, the “apparent Kd (screen)” value worked out at 1.16 nM.

B22: K66H (designed binder)
chain: MTLQELLREEALRRAEAEAFRYALELLAEKFPEQKEYLLDLAEEIESQIRSLSGVDVEDVRKFLDHEWAWVKELLAEHPAELAEVEAARAARLAELRAEVEAKVAA
On to B22, for which the “apparent Kd (screen)” value stood at 1.05 nM.

B23: P79R (designed binder)
chain: MTLQELLREEALRRAEAEAFRYALELLAEKFPEQKEYLLDLAEEIESQIRSLSGVDVEDVRKFLDKEWAWVKELLAEHRAELAEVEAARAARLAELRAEVEAKVAA
For B23, the “apparent Kd (screen)” value was determined as 0.869 nM.

B24: L26H (designed binder)
chain: MTLQELLREEALRRAEAEAFRYALEHLAEKFPEQKEYLLDLAEEIESQIRSLSGVDVEDVRKFLDKEWAWVKELLAEHPAELAEVEAARAARLAELRAEVEAKVAA
Take B24: the “apparent Kd (screen)” value was 0.593 nM.

B25: L7Q (designed binder)
chain: MTLQELQREEALRRAEAEAFRYALELLAEKFPEQKEYLLDLAEEIESQIRSLSGVDVEDVRKFLDKEWAWVKELLAEHPAELAEVEAARAARLAELRAEVEAKVAA
As for B25, the “apparent Kd (screen)” value amounted to 8.56 nM.

B26: A98W (designed binder)
chain: MTLQELLREEALRRAEAEAFRYALELLAEKFPEQKEYLLDLAEEIESQIRSLSGVDVEDVRKFLDKEWAWVKELLAEHPAELAEVEAARAARLAELRWEVEAKVAA
For the molecule B26, the “apparent Kd (screen)” value came out at 0.49 nM.

B27: A87E (designed binder)
chain: MTLQELLREEALRRAEAEAFRYALELLAEKFPEQKEYLLDLAEEIESQIRSLSGVDVEDVRKFLDKEWAWVKELLAEHPAELAEVEEARAARLAELRAEVEAKVAA
For the molecule B27, the “apparent Kd (screen)” value came to 0.446 nM.

B28: V71A (designed binder)
chain: MTLQELLREEALRRAEAEAFRYALELLAEKFPEQKEYLLDLAEEIESQIRSLSGVDVEDVRKFLDKEWAWAKELLAEHPAELAEVEAARAARLAELRAEVEAKVAA
B28: the “apparent Kd (screen)” value was 0.49 nM.

B29: Q4G (designed binder)
chain: MTLGELLREEALRRAEAEAFRYALELLAEKFPEQKEYLLDLAEEIESQIRSLSGVDVEDVRKFLDKEWAWVKELLAEHPAELAEVEAARAARLAELRAEVEAKVAA
For B29, the “apparent Kd (screen)” value stood at 0.49 nM.

B30: E29N (designed binder)
chain: MTLQELLREEALRRAEAEAFRYALELLANKFPEQKEYLLDLAEEIESQIRSLSGVDVEDVRKFLDKEWAWVKELLAEHPAELAEVEAARAARLAELRAEVEAKVAA
As to B30, the “apparent Kd (screen)” value turned out to be 0.956 nM.

B31: V71H (designed binder)
chain: MTLQELLREEALRRAEAEAFRYALELLAEKFPEQKEYLLDLAEEIESQIRSLSGVDVEDVRKFLDKEWAWHKELLAEHPAELAEVEAARAARLAELRAEVEAKVAA
Consider B31, for which the “apparent Kd (screen)” value was 0.539 nM.

B32: R13M (designed binder)
chain: MTLQELLREEALMRAEAEAFRYALELLAEKFPEQKEYLLDLAEEIESQIRSLSGVDVEDVRKFLDKEWAWVKELLAEHPAELAEVEAARAARLAELRAEVEAKVAA
As for B32, the “apparent Kd (screen)” value was determined as 0.304 nM.

B33: E77R (designed binder)
chain: MTLQELLREEALRRAEAEAFRYALELLAEKFPEQKEYLLDLAEEIESQIRSLSGVDVEDVRKFLDKEWAWVKELLARHPAELAEVEAARAARLAELRAEVEAKVAA
Turning to B33, the “apparent Kd (screen)” value was determined as 0.49 nM.

B34: E73K (designed binder)
chain: MTLQELLREEALRRAEAEAFRYALELLAEKFPEQKEYLLDLAEEIESQIRSLSGVDVEDVRKFLDKEWAWVKKLLAEHPAELAEVEAARAARLAELRAEVEAKVAA
On to B34, for which the “apparent Kd (screen)” value came to 0.539 nM.
